Laboratory results taken from PMC11847078.

Tests used:
CD4-Nav1.6-CTD-NLuc = CD4-Nav1.6-CTD-NLuc (UniProt Q9UQD0); assay: split reporter (BiFC, NanoBiT); in-cell split-luciferase complementation assay (LCA); HEK293 cells transiently cotransfected with CD4-Nav1.6-CTD-NLuc and CLuc-GSK3β or a mutant; D-luciferin, 37 °C; peak luminescence as percent of the per-plate control; in one set cells treated with vehicle (0.5% DMSO) or 2 μM CHIR99021 for 1 h before the read-out
GSK3β = GSK3β (UniProt P49841); assay: split-luciferase complementation assay in HEK293; details: reference: vehicle (0.5% DMSO); sites T1936

Chain of UniProt Q9UQD0 (Q9UQD0 whole entry): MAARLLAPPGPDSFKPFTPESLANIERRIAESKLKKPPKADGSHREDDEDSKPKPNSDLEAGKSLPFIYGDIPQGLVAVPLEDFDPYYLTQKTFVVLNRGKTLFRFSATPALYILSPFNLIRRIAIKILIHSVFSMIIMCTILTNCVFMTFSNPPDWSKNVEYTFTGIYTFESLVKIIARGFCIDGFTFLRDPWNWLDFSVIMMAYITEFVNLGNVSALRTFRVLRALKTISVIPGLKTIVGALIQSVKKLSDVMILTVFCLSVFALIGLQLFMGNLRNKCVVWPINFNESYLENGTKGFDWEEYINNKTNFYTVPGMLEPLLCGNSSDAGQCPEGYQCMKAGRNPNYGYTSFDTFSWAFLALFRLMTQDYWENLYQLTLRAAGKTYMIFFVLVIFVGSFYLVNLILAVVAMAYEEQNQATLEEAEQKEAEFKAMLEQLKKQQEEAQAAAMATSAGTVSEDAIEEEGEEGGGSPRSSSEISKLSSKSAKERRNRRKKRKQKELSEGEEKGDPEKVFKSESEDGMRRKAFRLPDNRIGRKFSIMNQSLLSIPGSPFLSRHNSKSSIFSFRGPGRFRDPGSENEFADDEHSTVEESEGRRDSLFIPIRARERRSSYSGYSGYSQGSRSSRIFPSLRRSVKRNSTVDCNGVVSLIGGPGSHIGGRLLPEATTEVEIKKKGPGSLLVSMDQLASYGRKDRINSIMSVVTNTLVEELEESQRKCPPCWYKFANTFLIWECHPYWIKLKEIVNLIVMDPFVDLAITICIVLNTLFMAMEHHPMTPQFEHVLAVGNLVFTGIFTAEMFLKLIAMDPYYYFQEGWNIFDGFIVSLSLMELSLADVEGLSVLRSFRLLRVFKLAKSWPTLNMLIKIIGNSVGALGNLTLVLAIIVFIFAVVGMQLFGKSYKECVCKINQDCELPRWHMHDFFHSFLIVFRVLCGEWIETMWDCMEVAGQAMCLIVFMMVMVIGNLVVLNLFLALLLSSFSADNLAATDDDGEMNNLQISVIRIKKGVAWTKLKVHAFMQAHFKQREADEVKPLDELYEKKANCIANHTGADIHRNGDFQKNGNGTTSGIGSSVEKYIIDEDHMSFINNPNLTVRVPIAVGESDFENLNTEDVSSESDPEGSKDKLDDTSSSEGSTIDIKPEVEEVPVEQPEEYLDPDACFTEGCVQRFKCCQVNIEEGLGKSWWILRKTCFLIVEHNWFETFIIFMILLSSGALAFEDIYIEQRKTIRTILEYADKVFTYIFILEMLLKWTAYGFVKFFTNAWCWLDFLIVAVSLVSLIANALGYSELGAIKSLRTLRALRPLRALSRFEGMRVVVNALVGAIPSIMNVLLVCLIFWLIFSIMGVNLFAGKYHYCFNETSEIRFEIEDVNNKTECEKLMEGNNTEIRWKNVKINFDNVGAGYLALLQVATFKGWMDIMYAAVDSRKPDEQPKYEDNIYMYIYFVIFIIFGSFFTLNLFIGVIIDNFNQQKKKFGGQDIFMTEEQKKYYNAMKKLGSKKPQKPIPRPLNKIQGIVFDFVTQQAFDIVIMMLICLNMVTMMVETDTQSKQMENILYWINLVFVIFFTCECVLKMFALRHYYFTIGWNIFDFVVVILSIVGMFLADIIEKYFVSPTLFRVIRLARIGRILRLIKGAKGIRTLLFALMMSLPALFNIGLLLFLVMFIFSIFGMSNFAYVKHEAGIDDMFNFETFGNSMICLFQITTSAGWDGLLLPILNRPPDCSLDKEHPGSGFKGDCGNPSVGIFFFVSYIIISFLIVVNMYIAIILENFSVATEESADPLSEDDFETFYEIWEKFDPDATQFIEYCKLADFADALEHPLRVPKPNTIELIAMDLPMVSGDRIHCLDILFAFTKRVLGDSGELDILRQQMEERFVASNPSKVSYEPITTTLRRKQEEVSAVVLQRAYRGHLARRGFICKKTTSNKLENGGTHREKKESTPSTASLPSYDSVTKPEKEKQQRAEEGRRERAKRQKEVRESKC
Chain of CLuc-GSK3β (P49841 whole entry): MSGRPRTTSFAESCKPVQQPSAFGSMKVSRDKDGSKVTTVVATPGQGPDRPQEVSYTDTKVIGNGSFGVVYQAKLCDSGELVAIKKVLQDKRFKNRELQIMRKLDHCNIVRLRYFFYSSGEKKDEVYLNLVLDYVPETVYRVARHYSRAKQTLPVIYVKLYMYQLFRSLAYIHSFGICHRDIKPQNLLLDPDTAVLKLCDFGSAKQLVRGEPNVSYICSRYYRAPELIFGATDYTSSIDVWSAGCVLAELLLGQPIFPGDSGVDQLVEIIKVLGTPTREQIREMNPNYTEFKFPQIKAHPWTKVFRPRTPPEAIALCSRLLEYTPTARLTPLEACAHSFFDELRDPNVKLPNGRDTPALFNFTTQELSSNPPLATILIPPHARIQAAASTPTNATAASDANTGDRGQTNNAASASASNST

Substance | % Lum with 2 μM CHIR99021 (relative to Nav1.6:GSK3β + DMSO) (CD4-Nav1.6-CTD-NLuc) [% Lum] | % Lum (luminescence relative to Nav1.6:GSK3β control) (CD4-Nav1.6-CTD-NLuc) [% Lum] | also measured
CLuc-GSK3β (from UniProt P49841 1-420) (enzyme) | 91.2 |  | % Lum with vehicle (0.5% DMSO; the control to which the set is normalised) (CD4-Nav1.6-CTD-NLuc): 100 % Lum
CLuc-GSK3βΔABD (from UniProt P49841 1-420) (enzyme) | 58.2 | 42 | % Lum with vehicle (0.5% DMSO) (relative to Nav1.6:GSK3β + DMSO) (CD4-Nav1.6-CTD-NLuc): 60.9 % Lum
CLuc-GSK3βΔCTD (from UniProt P49841 1-343) (domain or fragment) |  | 167 | 
Nav1.6 C-terminal domain (CTD) 2 μM CHIR99021, 1 h |  |  | other: % luminescence of WT GSK3β + DMSO control (GSK3β): same; reference 60.9 ± 3.3; percent of reference (GSK3β): same; reference 100.0 ± 4.4
